We go through 18 sequences from a protein production outcome set (Wang et al. 2014).
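Further: failed if final PepcDB status was selected cloned or expressed and not failed if soluble or beyond.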

The nature of the series: label from the status in PepcDB records.
As to “MMFLHGSRQAVIAALVGLVITVTAFSYLRYQENQVVHDALEAETYNLQRDIRQSLVSHLFVAELLAREWERSDLSIEERWKENADIVTLYYQNVQGITWLNDELDIELIYPQNEQPELLGTPFAKTPLLEKLKASEGNRHAMMGPAGNLGRISSDIAIFVRVEQQDQTHGFLGFVISLQSLFNNVVRSNISEGFQLSVRSDNDILYQFAGDTSLREEWSHFHSLQLVGNSWELSVWPTAGHLEQLRGGISLAALIAGLLVTSMLTFVLYILGQSRFKAQQLADSNIELYSEIDERERIEKQMAYLAEHDSLTGLVNRNALKRILGEWLETESPHKKAALLFIDLDRFKEVNDALGHTVGDELLRRVARRITKLAPKGSVLARAGGDEFLLAIAKPDSRESIIKLSEQMLQALDTHFFVDVYELFISASIGVTFADDADFNAEYFIRNADTALYQAKEHGRNTYKVYDKAIHRDLTKKLELVKRLRHAVSKQQLTVYYQPKVELGSRRISGLEALVRWVDDDGSIIPPDEFIPLAEDTGLIIPISEYVMEEAFLQLKQWHELGFDELSIAINISGKQLHLADLVDDIMERVNEAQIPPNKVELELTEQVFIENIQSHTRFMHSVREQGMSLAIDDFGVGYSSLSYLKNFPVTSLKIDRSFVRDLPHNEDDATITQTIISLARNLNLQLVAEGIETEEQVEFLLQRECSTGQGFLFSKPVPARQITELLQQYKGLIPIQIA”, the protein production result is “failed”. As to “SDSLETTQQDYPDCFFQHVKVNVKNPYDLTRQVCSSMDQWLTERLDSEPLSLAILVDSATSILYLSNQSNSFSLLFHYLRVMGRKLSPTLYCVCQLIHFDMGYGDELLKEAKFYDSLILQLDALPLGVPSEQDGRLSIEERDQAISTVLFKILENQIKFFTI”, the protein production result was “failed”. For “MTVLSPSLPHAAGIDAALVENPWLGLRRSGRYFQNAETEALFARALGYARAGVCVHLAGPAGLGKTTLALRIAQALGRPVAFMTGNEWLGSRDFIGGEIGQTVTSVVDRYIQSVRRTEQSARIDWKESILGQAMRCGQTFIYDEFTRASPEANAALLSVLEEGVLVSTDGASRHQYIEAHPDFRVLLTSNPHEYQGVKAAPDALIDRMVTLRLEEPSAPTLAGIVALRSGLDPATARRIVDLILSVQRSGEMQAPPSMRTAILVARLAAPLRLAGRLSDAALAEIAADVLRGRGLEADAAAFEAKLAAPTPGETARLEHHHHHH”, the protein production entry was “failed”.

“MMKEMTVQQMTEKVLNKESLFILDVRNESDFRDWKIEGENFAYLNVPYFELVHGVDSIVDRLPKDQDIVVVCAKGGSAAFVAEQLAEAGFDNVYTLAGGMQAWSEHLHQAKVYEDDQLKIYQFIRVGKGCLSYMVLSGDEALVVDPLRFIDVYEQVAQQEGVTITHIVDSHLHADHLSGGKALAERTGAAYYLMKSEGAVFDFEPLEQHETIDFENVHLEVLAVKTPGHTPGSVSFFVNGKWLFSGDTIFVGGLGRPDLGGKVAEWAEDLYHTVYEKVAAMADDVIVLPAHYANLDEEINAEGYVGDTLGRIRARNEMMQNKAKDEFIDLVIQGAKTETPPNFEDIVAINRGLKTVDIETQRELEIGPLEHHHHHH”: the protein production result is reported as “not failed”. On to “MLAGGKMGDMKITRHIHACVEISQGNDRIIIDPGTFGAPDLCGATILVTHNHADHVDPELLKPGMTIYAPRSVAHSIPVECHIVEHGRNFTVGSLSVEVLGSEHAMLTHSMPIAENVGYLINGRVLHPGDTFQPIKDVELALVPVNGPWVKMLDVEGYLKKFPPKRFIGIHDGIVNDRGLAINKKFLTHLGETYGSEYSPLEEGESLEILEHHHHHH”, for which the protein production result is reported as “failed”. With “DIDTFYSKVHNIIGQLINAKNFFIAKYEKDSDTLSFSYYVDEKTSNLAKDFKPRKLSNRYSELVLRRRETVLLTYQEMMSLHLEGETKKPQDDIHSWLGVPLIYSGQLLGVMVLQSYYYKTTYNQQDAELLNFVSNHVSAAIKRRELAD”, the protein production result is listed as “failed”. Take “MDVFDGLPDPIIVDILNKVGDVKTLLRCSSLSKRFNSLVPQSESLTLRLDHSVSDSPVVTSIFRSLFNGLVSLLSKPAKPITITTLSPSLPFKILSRFDRIRNLDVELPGGDVKLEKGAAVKWKAEFGKTLKSCVIVAFRSAGTVSSPVAVEGESDAEFVTGLKTRVVWTISALMAASSRHYLMREVVKEHEEIESLVMRDKEREGTVVMNEEGLKELRNTEARVEDEERVVKNKRSVVPSVRMSMRHAPSLKLKSGICLESATLVIVRPSGADFEVGDDAELATEAFVGDCMYGEAVVALLKCKKNALEMNSF”: the protein production entry is listed as “failed”.

For “NIESIENLQGIRALQQQAPQLLSSGLPNEQQFSLLKQAGVDVVINLMPDSSKDAHPDEGKLVTQAGMDYVYIPVDWQNPKVEDVEAFFAAMDQHKGKDVLVHCLANYRASAFAYLYQLKQGQNPNMAQTMTPWNDELAIYPKWQALLTEVSAKYGH”, the protein production result was “not failed”. With “MRVISRRTSLILFSGLVFVLASMLLYLYLNSGSEQTQTYNESRDLIRQLKQQDAVWENEVLKARVAVSHNYDPLVIPLKEMKRLWARFDRREAEQGRDESDQWRDAHDGFLSAFGEKARLVEQFKSHNALLRNSLAFLPTAEDGIQAQINTMLAPNRQEVHVFVTDTYDLLLSALEFAQVTSVERAAEIEVGLGNLAVNTENLPKEFQTPLNLLSNHVALILREQPVVNRLLEQIEAIPVAERLDTITSLLDRDQQQVEKINRKNHLYTLWLSGLLMFSVICLAALLVRSFAEVRRVNNALQSANDVLEQRVEERTLALRNAQSELFNAARQAGMAEIATNVLHNVGNVLNSVNTSSDLIARTLRSSKTQGLGKAMQLFREHATDIGRFLDEDPRGRLLPGYLNQLTEAIADEQKEMAIELERMNKSIDHIKEVVATQQSYAGAKNVPEPLSVNDLVEDALRMNAGALTRHQVRVVRDFADLPLVMGDRHRLLLILINLISNAKYAMSGPGSDPRTMILRTRIVEGGLLEMSVLDEGEGIAPENLQKIFAHGFTTRKDGHGFGLHSCALAAIEMNGHLTAHSDGPGLGAVFTLRIPLIAVTEPA”, the protein production entry is “failed”.

With “MSPPLDHAWIAARIPHSGAMCLLDQVVTWDDTHIRCTTTSHRAPDNPLRAHGRLAAVCGIEYAAQAMAVHGAILGNAQDRPRAGFLASVRSVEAHVERLDTIEAPLTIEAERIGGDGNNVLYRFSVRCGERVLLTGRAAVVLDAAGLGLPDAGALAKANAQARLEHHHHHH”, the protein production result is “failed”. As for “MRRGSGNPERPSLSRDGLRVPPPCPGKRGPGHFSGYHGGMEGIRRAAQRAAEEFLQAFPMAPGSLFVLGGSTSEVLGERVGTRPSLEAAHAVLEGLLPPLLERGVHVAVQACEHLNRALVVERETARAFGLEEVAVFPHPKAGGALATAAFLRFRDPVMVESLKAQAHGGMDIGGVLIGMHLRPVAVPLRLSVRKIGEAVLLAAKTRPKLVGGARAVYTREEMLKKLEEFLPKPP”, the protein production result was “not failed”. As for “MSEWRGFNRKGNTMKIRPGRHNAPDFPHGAAVTIGNFDGVHLGHKHILQKLRLEADARGLPVVAVVFEPQPKEFFALRTGKTPPCRISPLRTKLELLEGTGCVDAAWVLRFDRNFSEISAQAFIDRLLRQTLNTRYLLVGDDFRFGAGREGCFELLAQQPDMQTERTPSVIVEDIRTSSTAVRQALSDGNLAYAKKLLGHDYVLGGRVVHGRKLGRTLNAPTANIRLPGHRYALGGVFVVEADGAFGTRRGVASFGFNPTVDGGCSQKLEVHLFDFQGDLYGQRLNVRFLHKLRDEEKFDGMEELKRRIEADMEAAKCW”, the protein production result is reported as “not failed”. As to “MDRSLQSTHAKLVARDIQRLTQSPTESNSFSLLGGACVSRVEIVGTIVSRDLTPKFLKFGVDDGTGCVTCVMWLNQLTSSYFSRWDPATILLLASAARKQAAQIRIGAVARVRGRVGSYRGVMQITANVAVAERDPNAEILHWLECLKLGQSCYRVRIQS”, the protein production result is recorded as “failed”.

On to “MIQVPASFDIQGHRGCRGLLPENTIAAFTKALLLGVTTLEFDLVISKDNRVVVSHDTFFHHEITMMVDGEDVTEANEKNFNLYAMNYADIKEIDVGMKTHPRFKSQKKVPAVKPLFRELIETAEKLSAKIQYNGEIKSTVEGDNIDHPNIALFCDLVVAEIKKAHITDRFTLQSFDVRALEYMHSQYPDIKLSYLVETKGTLKKQLEKLSFTPAVYSPDVTLVSKKDIDAAHKLGMRVIPWTVNTKEEIETLISLGVDGIITDYPDLFFEK”, for which the protein production entry is given as “not failed”. Take “MMNLPKNIQQPLSLIYLDANATTQVLPQAASAALSTMETLFGNPSSSHISGLQAKQIVDKTRQQAKRIVGAAEGKIIFTSGATEGIQTAILSALVNVKKTLNKSLNNKSYSLLYGATEHKAVPESLKHWNKILEINAEIKAIPVDEKGQLDMAFIAKEVPNALMVCTMAVNNETGVYQDISLLDQTIRTNNPNVAWMVDCVQALGKTDLVLAQTSIDYAPFSGHKLYAPKGIGFMYVKEKAPFTAFIAGGGQESGLRSGTENLPGLAALSEIFSMLLGESEASFTPIKTLHLYRQQLVSALTQAFPEITFNHSFENSVATTLNFAIPGFSSKEIMDLFDAANIRVSSGSACSSKVTRSFVLDAMGLPAWQSESAIRMSFGPAMTQTEIDIACSRIVSAAQALVQSCLTLDKKNIDTQTMNTSSTTNKTELDGLVQFKAGGSCSWLYVDKKTRSAVFIDPLSEVSERLQTLLTCRGLNLVAVIDTHGHADHKSCRNGIAKKFLAEQQTEYLGWPAGAQTTTIHGQTFQYLILGDKWLIKVATPGHTDDSMSLLLCDPVTDSAEKLQVHYAFCGDLILMDSIGRSNFSTSSAPAMYSSLKLMKSLIGNNSLICPSHDYHNEFTTCLETEMKRNSLLRQVINSEIDIEEFTSKKIKMDKDIINESGSEIMCGALIGACQKVVVREYDSASLTKAVKKSSDMKLIDIREPHEYALQHDEKFTSNVPLTRLVQFVKEQQQNKEQEFVLVCRSGGRSQLAAQALARLGFENVGHLKGGYALHQY”: the protein production entry is on record as “failed”. To “MVNHGYPLGRSLLSIAMAMLGALSLVFPLPLLTQDMVDSERSLPLLGDHPLEERLIDGMDEGIKKNYRGAIAIFTELILLDPSYADAYFNRGIARARIADYQGAITDHSQAITLNPQLAEAYKARGKIYWQLGEQAQAIADLEAALALFSDQENLVSQREAWEQLQTWHGNP” belongs “failed”; to “MPKKRENRGRRKGDKGHVGYISCDQCGARVPEDKAVCVTKMYSPVDASLASELEKKGAIIARYPVTKCYCVNCAVFLGIIKIRAENERKQKARLRLEHHHHHH”, “failed”. Regarding “MHEDRKRRRGKLRTAVHFKAPRRARFSRFPLFPRLNPMPAAPTDAHAALPIALRDLIRLHAPQATLLAAIGQRILNIQAEGAPTEEAQLVPPDDWLEHGDLAWITRDGALLGLLWSDGAPVPDGAVQVLTLLLSAASAEGASREADMLITQLPAATAWLSAELEFRQVSRTFLELFGLTGADVLGRTVHEVFPDHAALAQQLDSAAAGRAVQLGDERVPSLPGHSGERWLRGSARPYFGGAAAGVLWTVQDVSTEHTQTTQFAALLGTDLPLALLGPGGAVQGASRGMRQLLGEPEDLAEAQAHPQRPLHEWPCWAPAGARLLQDLIQSAEAGRPSPVPSEIALARGGQLPLLVRRSDTVPGLLLAEGVRPAAVSEDNGAARLLHLSGAATILLDPQGRVQLISEPAARLLGFDPHNIALTGLPLPRLHQQLGIKLHTPQGNPLTVPPLSALTLPHNGEVLAVLPGGVTRHLEISLSALPGSGQSTGSSAASPGRSAAPELLLSLRDVTTLRRAQAKLRHDASHDGLTGLLNRSGLRAALGQATAAQTGGMVACLDIDGFGGLNAALSRTAGDLLLIQVAARLNDLAELEGGQAARLADDTFAVYLPQLGAAVGGQKLQAALREPLRTGKRLVPVTFSLGAAPLLAAAPEQALADAEVALQHARRQGRGQLTVFEPDMRAEEAQTFELEDQLRAVLDRGLQHEQFSLLYQPAVSLKDGRVLGAEALLRWTHPELGNVSPARFLPLAQRSDLITSIGEWVVREAVQGRTQLRDATGQRNWRTSVNLSLEELRREGAIERLLPLITRPSALDIEVSASSLLDHSEETLGLLDALRARGARLIVDDFGDGASSLTALTQFPLYGVKLHPTLTTRLPGDQKSLKLVQGTVSLAHSLGLTVTAVGVETYAQLDMLRDLGCDAAQGYALTPPLSAGDLVTWVQGR”, the protein production result is on record as “failed”.
